Experimental data taken from paper PMC4612572.
Blank lines part the entries; values can stand above or below the molecule they belong to.

Key:
[1] = target: p766-Gravin (human (endogenous in U2OS; cells of Figure 2E-H not stated)) (UniProt Q02952); test: proximity ligation; in situ PLA in U2OS cells stably expressing the mother centriole marker myc-centriolin; signal at the mother spindle pole relative to the daughter spindle pole
[2] = target: p766-Gravin (human (endogenous in U2OS; cells of Figure 2E-H not stated)) (UniProt Q02952); test: proximity ligation; in situ PLA with antibodies to p766-Gravin and to Aurora A or Plk1 in fixed cells at different stages of the cell cycle; integrated signal per cell normalised to interphase cells; n = 3 experiments
[3] = target: Gravin (human (endogenous in HEK293)) (UniProt Q02952)

fold PLA signal, mother against daughter spindle pole [1]: 2.35 fold
fold PLA signal, metaphase against interphase cells [2]: 10.3 fold
Molecule: polo-like kinase 1 (from UniProt P53350 1-603) (enzyme)

Kemptide (300 uM) phosphorylation (32P incorporation) in Gravin immune complexes isolated from mitotic lysates; share blocked by the Aurora A inhibitor VX-680 [3]: 33.5%
fold PLA puncta, mother against daughter spindle pole [1]: 4.16 fold
fold PLA signal, metaphase against interphase cells [2]: 3.86 fold
B1: Aurora A (enzyme)
chain: MDRSKENCISGPVKATAPVGGPKRVLVTQQFPCQNPLPVNSGQAQRVLCPSNSSQRIPLQAQKLVSSHKPVQNQKQKQLQATSVPHPVSRPLNNTQKSKQPLPSAPENNPEEELASKQKNEESKKRQWALEDFEIGRPLGKGKFGNVYLAREKQSKFILALKVLFKAQLEKAGVEHQLRREVEIQSHLRHPNILRLYGYFHDATRVYLILEYAPLGTVYRELQKLSKFDEQRTATYITELANALSYCHSKRVIHRDIKPENLLLGSAGELKIADFGWSVHAPSSRRTTLCGTLDYLPPEMIEGRMHDEKVDLWSLGVLCYEFLVGKPPFEANTYQETYKRISRVEFTFPDFVTEGARDLISRLLKHNPSQRPMLREVLEHPWITANSSKPSNCQNKESASKQS
